Test results as given in US20120156175A1.

Target: integrin alpha V beta 5 (human) (UniProt P06756)
Experiment: cell-based or functional assay

Chain of UniProt P06756 (P06756 31-1048, chain 1 of 2): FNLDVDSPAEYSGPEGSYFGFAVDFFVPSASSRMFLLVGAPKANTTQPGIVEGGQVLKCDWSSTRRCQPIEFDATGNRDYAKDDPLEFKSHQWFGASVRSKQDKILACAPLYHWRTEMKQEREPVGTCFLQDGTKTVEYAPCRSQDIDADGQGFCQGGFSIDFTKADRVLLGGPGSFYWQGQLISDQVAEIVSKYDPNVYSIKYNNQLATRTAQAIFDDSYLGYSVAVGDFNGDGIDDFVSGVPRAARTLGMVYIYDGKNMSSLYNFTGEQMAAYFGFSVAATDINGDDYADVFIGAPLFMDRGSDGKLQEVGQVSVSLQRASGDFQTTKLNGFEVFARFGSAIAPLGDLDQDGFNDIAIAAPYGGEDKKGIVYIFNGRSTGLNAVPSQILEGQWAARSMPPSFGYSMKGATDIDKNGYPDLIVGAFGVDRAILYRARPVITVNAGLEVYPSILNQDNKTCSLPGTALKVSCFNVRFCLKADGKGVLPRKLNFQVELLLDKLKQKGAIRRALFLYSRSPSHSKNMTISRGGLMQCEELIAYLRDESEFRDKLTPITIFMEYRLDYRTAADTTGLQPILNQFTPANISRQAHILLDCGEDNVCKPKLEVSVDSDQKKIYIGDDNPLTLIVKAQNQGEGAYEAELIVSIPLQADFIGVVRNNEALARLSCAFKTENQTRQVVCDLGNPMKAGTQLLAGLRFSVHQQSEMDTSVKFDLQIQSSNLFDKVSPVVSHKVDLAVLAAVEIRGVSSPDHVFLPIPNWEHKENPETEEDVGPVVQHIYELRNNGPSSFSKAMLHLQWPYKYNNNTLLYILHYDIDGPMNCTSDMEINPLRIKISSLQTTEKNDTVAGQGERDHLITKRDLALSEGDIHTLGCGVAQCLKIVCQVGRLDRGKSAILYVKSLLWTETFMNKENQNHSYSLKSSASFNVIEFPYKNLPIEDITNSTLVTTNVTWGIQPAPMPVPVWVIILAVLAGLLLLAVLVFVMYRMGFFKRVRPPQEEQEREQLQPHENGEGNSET
Chain of UniProt P06756 (P18084 24-799, chain 2 of 2, further chain): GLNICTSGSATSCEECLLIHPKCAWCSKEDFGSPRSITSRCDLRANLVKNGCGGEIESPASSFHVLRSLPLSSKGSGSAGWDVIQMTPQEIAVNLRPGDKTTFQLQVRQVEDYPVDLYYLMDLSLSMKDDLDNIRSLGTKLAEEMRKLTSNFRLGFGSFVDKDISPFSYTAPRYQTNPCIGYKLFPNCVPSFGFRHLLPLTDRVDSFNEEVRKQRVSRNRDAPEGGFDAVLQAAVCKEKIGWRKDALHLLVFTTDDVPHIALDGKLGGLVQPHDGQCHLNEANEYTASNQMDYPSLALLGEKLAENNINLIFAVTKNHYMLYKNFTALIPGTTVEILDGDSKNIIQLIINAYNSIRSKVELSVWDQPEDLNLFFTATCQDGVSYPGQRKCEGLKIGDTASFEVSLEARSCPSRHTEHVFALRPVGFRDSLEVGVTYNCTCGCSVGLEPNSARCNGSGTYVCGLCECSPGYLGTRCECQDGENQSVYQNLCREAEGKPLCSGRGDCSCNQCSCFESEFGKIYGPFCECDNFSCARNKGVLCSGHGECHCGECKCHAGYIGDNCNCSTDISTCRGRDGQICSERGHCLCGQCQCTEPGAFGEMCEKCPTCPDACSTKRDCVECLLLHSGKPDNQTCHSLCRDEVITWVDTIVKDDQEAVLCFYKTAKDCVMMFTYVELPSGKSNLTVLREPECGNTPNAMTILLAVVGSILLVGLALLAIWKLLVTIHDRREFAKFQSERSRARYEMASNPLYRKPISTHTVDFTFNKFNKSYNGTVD

ability to induce the migration of neural stem cells (Boyden chamber assay, HB1.F3 cells, against cells not treated with periostin): 100%
Substance: periostin (from UniProt Q15063 22-779) (ligand)
